What all share (format): biochemical, Z. mays
Data set [1] has as its system 4-hydroxyphenylpyruvate dioxygenase (HPPD). Put plainly: OFF rate ratio: release of inhibitor from pre-formed enzyme-inhibitor complex. The note with it: Table 7; tembotrione; combinatorial variants. In a few lines: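 HPPD (7.2 μM) pre-incubated 1 h at RT with inhibitor (8 μM), then diluted into 25 mM Hepes pH 7, 2 mM ascorbate, 10 μM FeSO4, 100 μM HPP, 50 nM HGD; A320 followed 12 min. Ratio = steady-state rate with inhibitor over initial rate of inhibitor-free enzyme.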

Data set [2] has the same test system. Description: Insensitivity parameter (ON × OFF) and trait fitness (ON × OFF × kcat/KM or × kcat). The arrangement: key to ON × OFF / Insensitivity, mesotrione, ON × OFF / Insensitivity, tembotrione, ON × OFF / Insensitivity, topramezone, ON × OFF / Insensitivity, sulcotrione, ON × OFF / Insensitivity, isoxaflutole (DKN), ON × OFF: insensitivity = ON rate ratio × OFF rate ratio (surrogate for KD). In a few lines:
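Calculated, not measured directly: ON rate ratio × OFF rate ratio gives an insensitivity parameter serving as a KD surrogate.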

Data set [3] has the same test system. Description: Estimate of kcat from initial rate at saturating hydroxyphenylpyruvate without inhibitor (ON rate ratio assay). In a few lines:
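Reactions used 60 or 120 nM HPPD and saturating 100 μM hydroxyphenylpyruvate without inhibitor. kcat was estimated from the initial rate at the known enzyme concentration.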

Data set [4] has the same test system. Description: ON rate ratio: HPPD reaction rate with vs without inhibitor in the 70 to 90 second interval. The note with it: Table 7; tembotrione; combinatorial variants. In a few lines: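 Time courses of HPPD reactions, 60 or 120 nM enzyme with 100 μM HPP substrate, run with and without 4 μM inhibitor (e.g. mesotrione, tembotrione). Value is the rate with inhibitor over rate without, taken over 70–90 s; higher ratio reflects slower kON.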

[5] abbreviates: Table 7, tembotrione, combinatorial variants.
Where [6] appears, read: Table 7, combinatorial variants.

B1: P056028-F-07 (protein)
chain: MGPTPTATAAGAAVAAASAAEQAAFRLVGHRNFVRFNPRSDRFQTLAFHHVELWCADAASAAGRFSFALGVPLAARSDLSTGNSAHASLLLRSGSLSLLFTAPYAHGADAATAALPSFSAAAARRFAADHGLAVRAVALRVADAEDAFRASVAAGARPAFGPVDLGRGFRLAEVELYGDVVLRYVSYPDGGAGEPFLPGFEGVASPGAADYGLSRFDHIVGNVPELAPAAAYMAGFTGFHEFAEFTTEDVGTTESGLNSMALANNSENVLLPLNEPVHGTKRRSQIQTFLDHHGGPGVQHIALASDDVLRTLREMRARSAMGGFEFLPPPLSDYYDGVRKCAGDVLTEAQINECQELGVMVDRDDEGVLLQIFTKPVGDRPTFFLEIIQRIGCMEKDEKGQEYQKGGCGGFGKGNFGQLFKSIEDYEKSLEAKHAAAAATAQGS
modifications: Zea mays variant form created by artificial means.
For the molecule B1, in data set [1], the OFF rate ratio is reported as 0.322. The “ON × OFF” value in data set [2] (Megatable 3, shuffled variants) came out at 0.236; in data set [2] (setting [5]), 0.236. Further, the “ON × OFF × kcat” value in data set [2] (Megatable 3, shuffled variants) was 5.04; in data set [2] (setting [5]), 5.04. Also, the kcat in data set [3] (Megatable 3, shuffled variants) is 21.4 min⁻¹; in data set [3] (setting [6]) it was 21.4 min⁻¹. Besides, in data set [4], the ON rate ratio is listed as 0.735.

B2: P056028-G-10 (protein)
chain: MGPTPTATAAGAAVAAASAAEQAAFRLVGHRNFVRFNPRSDRFQTLAFHHVELWCADAASAAGRFSFALGVPLAARSDLSTGNSAHASLLLRSGSLSLLFTAPYAHGADAATAALPSFSAAAARRFAADHGLAVRAVALRVADAEDAFRASVAAGARKAFGPVDLGRGFRLAEVELYGDVVLRYVSYPDGAAGEPFLPGFEGVASPGAADYGLSRFDHIVGNVPELAPAAAYMAGFTGFHEFAEFTTEDVGTTESGLNSMALANNSENVLLPLNEPVHGTKRRSQIQTFLDHHGGPGVQHIALASDDVLRTLREMRARSAMGGFEFPPPPLSDYYDGVRRCAGDVLTEAQINECQELGVMVDRDDEGVLLQIFTKPVGDRPTFFLEIIQRIGCMEKDEKGQEYQKGGCGGFGKGNFQQLFKSIEDYEKSLEAKQAAAAATAQGS
modifications: Zea mays variant form created by artificial means.
For B2, the OFF rate ratio in data set [1] was determined as 0.259. In addition, the “ON × OFF” value in data set [2] (Megatable 3, shuffled variants) came to 0.157; in data set [2] (setting [5]), 0.157. The “ON × OFF × kcat” value in data set [2] (Megatable 3, shuffled variants) amounted to 4.61; in data set [2] (setting [5]), 4.61. The kcat in data set [3] (Megatable 3, shuffled variants) is 29.3 min⁻¹; in data set [3] (setting [6]) it was 29.3 min⁻¹. In addition, in data set [4], the ON rate ratio is 0.607.

B3: P056028-G-05 (protein)
chain: MGPTPTATAAGAAVAAASAAEQAAFRLVGHRNFVRFNPRSDRFQTLAFHHVELWCADAASAAGRFSFALGVPLAARSDLSTGNSAHASLLLRSGSLSLLFTAPYAHGADAATAALPSFSAAAARRFAADHGLAVRAVALRVADAEDAFRASVAAGARPAFGPVDLGRGFRLAEVELYGDVVLRYVSYPDGGAGEPFLPGFEGVASQGAADLGLNRFDHIVGNVPELAPAAAYMAGFTGFHEFAEFTTEDVGTTESGLNSMALANNSENVLLPLNEPVHGTKRRSQIQTFLDHHGGPGVQHIALASDDVLRTLREMRARSAMGGFEFLPPPLSDYYDGVRKCAGDVLTEAQINECQELGVMVDRDDEGVLLQIFTKPVGDRPTFFIEIIQRIGCMEKDEKGQEYQKGGCGGFGKGNFQQLFKSIEDYEKSLEAKRAAAAATAQGS
modifications: Zea mays variant form created by artificial means.
For B3, in data set [1], the OFF rate ratio turned out to be 0.361. For the same molecule, the “ON × OFF” value in data set [2] (Megatable 3, shuffled variants) was 0.267; in data set [2] (setting [5]), 0.267. The “ON × OFF × kcat” value in data set [2] (Megatable 3, shuffled variants) is 4.47; in data set [2] (setting [5]) it was 4.47. The kcat in data set [3] (Megatable 3, shuffled variants) was 16.7 min⁻¹; in data set [3] (setting [6]) it was 16.7 min⁻¹. In data set [4], the ON rate ratio was determined as 0.739.

B4: P056028-G-04 (protein)
chain: MGPTPTATAAGAAVAAASAAEQAAFRLVGHRNFVRFNPRSDRFQTLAFHHVELWCADAASAAGRFSFALGVPLAARSDLSTGNSAHASLLLRSGSLSLLFTAPYAHGADAATAALPSFSAAAARRFAADHGLAVRAVALRVADAEDAFRASVAAGARPAFGPVDLGRGFRLAEVELYGDVVLRYVSYPDGAAGEPFLPGFEGVASPGAADLGLSRFDHIVGNVPELAPAAAYMAGFTGFHEFAEFTTEDVGTTESGLNSMALANNSENVLLPLNEPVHGTKRRSQIQTFLDHHGGPGVQHIALASDDVLRTLREMRARSAMGGFEFLPPPLSDYYDGVRRCAGDVLTEAQINECQELGVMVDRDDEGVLLQIFTKPVGDRPTFFIELIQRIGCMEKDEKGQEYQKGGCGGFGKGNFGQLFKSIEDYEKSLEAKQAAAAATAQGS
modifications: Zea mays variant form created by artificial means.
Turning to B4, the OFF rate ratio in data set [1] turned out to be 0.248. For the same molecule, the “ON × OFF” value came to 0.186 in data set [2] (Megatable 3, shuffled variants) and 0.186 in data set [2] (setting [5]). Further, the “ON × OFF × kcat” value in data set [2] (Megatable 3, shuffled variants) came out at 2.54; in data set [2] (setting [5]), 2.54. Further, the kcat was 13.6 min⁻¹ in data set [3] (Megatable 3, shuffled variants) and 13.6 min⁻¹ in data set [3] (setting [6]). In addition, in data set [4], the ON rate ratio is reported as 0.752.

B5: P056028-G-02 (protein)
chain: MGPTPTATAAGAAVAAASAAEQAAFRLVGHRNFVRFNPRSDRFQTLAFHHVELWCADAASAAGRFSFALGVPLAARSDLSTGNSAHASLLLRSGSLSLLFTAPYAHGADAATAALPSFSAAAARRFAADHGLAVRAVALRVADAEDAFRASVAAGARPAFGPVDLGRGFRLAEVELYGDVVLRYVSYPDGAAGEPFLPGFEGVASPGAADYGLSRFDHIVGNVPELAPAAAYVAGFTGFHEFAEFTTEDVGTTESGLNSMALANNSENVLLPLNEPVHGTKRRSQIQTFLDHHGGPGVQHIALASDDVLRTLREMRARSAMGGFEFLPPPLSDYYDGVRRCAGDVLTEAQINECQELGVMVDRDDEGVLLQIFTKPVGDRPTFFLEIIQRIGCMEKDEKGQEYQKGGCGGFGKGNFGQLFKSIEDYEKSLEAKQAAAAATAQGS
modifications: Zea mays variant form created by artificial means.
As to B5, the OFF rate ratio in data set [1] is recorded as 0.304. The “ON × OFF” value was 0.231 in data set [2] (Megatable 3, shuffled variants) and 0.231 in data set [2] (setting [5]). Also, the “ON × OFF × kcat” value turned out to be 5.30 in data set [2] (Megatable 3, shuffled variants) and 5.30 in data set [2] (setting [5]). Moreover, the kcat was 23 min⁻¹ in data set [3] (Megatable 3, shuffled variants) and 23 min⁻¹ in data set [3] (setting [6]). Besides, in data set [4], the ON rate ratio came to 0.761.

B6: P056028-F-08 (protein)
chain: MGPTPTATAAGAAVAAASAAEQAAFRLVGHRNFVRFNPRSDRFQTLAFHHVELWCADAASAAGRFSFALGVPLAARSDLSTGNSAHASLLLRSGSLSLLFTAPYAHGADAATAALPSFSAAAARRFAADHGLAVRAVALRVADAEDAFRASVAAGARKAFGPVDLGRGFRLAEVELYGDVVLRYVSYPDGAAGEPFLPGFEGVASPGAADLGLSRFDHIVGNVPELAPAAAYMAGFTGFHEFAEFTTEDVGTTESGLNSMALANNSENVLLPLNEPVHGTKRRSQIQTFLDHHGGPGVQHIALASDDVLRTLREMRARSAMGGFEFLPPPLSDYYDGVRKCAGDVLTEAQINECQELGVMVDRDDEGVLLQIFTKPVGDRPTFFLEIIQRIGCMEKDEKGQEYQKGGCGGFGKGNFGQLFKSIEDYEKSLEAKQAAAAATAQGS
modifications: Zea mays variant form created by artificial means.
As for B6, in data set [1], the OFF rate ratio is 0.377. Further, the “ON × OFF” value in data set [2] (Megatable 3, shuffled variants) stood at 0.266; in data set [2] (setting [5]), 0.266. The “ON × OFF × kcat” value in data set [2] (Megatable 3, shuffled variants) came out at 3.23; in data set [2] (setting [5]) it was 3.23. Also, the kcat in data set [3] (Megatable 3, shuffled variants) is 12.1 min⁻¹; in data set [3] (setting [6]), 12.1 min⁻¹. Moreover, the ON rate ratio in data set [4] is listed as 0.705.

B7: P056028-F-09 (protein)
chain: MGPTPTATAAGAAVAAASAAEQAAFRLVGHRNFVRFNPRSDRFQTLAFHHVELWCADAASAAGRFSFALGVPLAARSDLSTGNSAHASLLLRSGSLSLLFTAPYAHGADAATAALPSFSAAAARRFAADHGLAVRAVALRVADAEDAFRASVAAGARPAFGPVDLGRGFRLAEVELYGDVVLRYVSYPDGAAGEPFLPGFEGVASQGAADYGLSRFDHIVGNVPELAPAAAYMAGFTGFHEFAEFTTEDVGTTESGLNSMALANNSENVLLPLNEPVHGTKRRSQIQTFLDHHGGPGVQHIALASDDVLRTLREMRARSAMGGFEFLPPPLSDYYDGVRRCAGDVLTEAQINECQELGVMVDRDDEGVLLQIFTKPVGDRPTFFLELIQRIGCMEKDEKGQEYQKGGCGGFGKGNFGQLFKSIEDYEKSLEAKQAAAAATAQGS
modifications: Zea mays variant form created by artificial means.
Turning to B7, the OFF rate ratio in data set [1] is 0.360. The “ON × OFF” value worked out at 0.252 in data set [2] (Megatable 3, shuffled variants) and 0.252 in data set [2] (setting [5]). Also, the “ON × OFF × kcat” value is recorded as 4.30 in data set [2] (Megatable 3, shuffled variants) and 4.30 in data set [2] (setting [5]). Besides, the kcat in data set [3] (Megatable 3, shuffled variants) is 17.1 min⁻¹; in data set [3] (setting [6]) it was 17.1 min⁻¹. The ON rate ratio in data set [4] stood at 0.700.

(Values after patent publication US11015206B2, “Compositions and methods comprising sequences having hydroxyphenylpyruvate dioxygenase (HPPD) activity” (PIONEER HI-BRED INTERNATIONAL, INC., priority 2014, dated 2021).)
